Paper PMC7321340, “Sorbitol as a Polar Pharmacological Modifier to Enhance the Hydrophilicity of ^99mTc-Tricarbonyl-Based Radiopharmaceuticals” (Molecules, 2020)
Read-outs that look alike come from different tables or passages of the source.

Legend:
[1] = target: T1, Gastrin-releasing peptide receptor (GRPR) on PC-3 cells (Homo sapiens, UniProt P30550); assay: Receptor saturation assay; type: binding; settings: 4 °C, 2 h, nonlinear regression, mean ± SEM, n = 2–3 in triplicate
T1 construct: using GRPR expressing PC-3 cells; host or cells: PC-3 human prostate adenocarcinoma cells (intact, in 6-well plates, 4 °C)
Protocol: The receptor affinity (Kd) and maximum receptor occupancy (Bmax) were determined by receptor saturation assays using increasing amounts of the radiolabeled peptides (Figure 3). […] Differences in specific molar activities (MBq/mol) could account for this observation and cannot be entirely excluded even though both ^99mTc-radiopeptides were prepared under identical conditions. Because this study aims at the investigation of differences in the pharmacokinetics of the radiopeptides (e.g., rate and route of excretion) rather than in tumor uptake, we continued with the evaluation of both compounds in vivo.
Cell culture reagents were purchased from Thermo Fisher Scientific (Vienna, Austria) or Sigma-Aldrich (Vienna, Austria). Human prostate adenocarcinoma cells (PC-3) were purchased from ATCC and cultivated in RPMI-1640 medium supplemented with 10% heat-inactivated fetal bovine serum (FBS), 2 mM L-glutamine, 100 units/mL penicillin and 100 μg/mL streptomycin under humidified atmosphere (37 °C, 5% CO2) until minimum 80% at confluence. […]
Receptor binding assays were performed as previously published. […] Non-specific receptor binding was determined using an excess of natural bombesin (2.5 μM/well for concentrations of the radiopeptide <10 nM, and 10 μM/well for higher concentrations). […] The obtained fractions were measured in a γ-counter.

[2] = tested on: GRPR expressing PC-3 cells; assay: Cell binding and internalization studies; type: cell-based, human
Protocol: Receptor binding and cell internalization properties of the ^99mTc(CO)3-labeled BBN derivatives were investigated with GRPR expressing PC-3 cells (n = 2–3 in triplicate). Despite the slightly slower uptake kinetics of [^99mTc][Tc(CO)3(12)], both radiolabeled compounds [^99mTc][Tc(CO)3(L)] […] The membrane bound fraction was less than 5% AD/10^6 cells for both compounds. The receptor-specific cell uptake was verified by incubating the cells with the radiopeptides in the presence of 1000-fold excess of natural bombesin as blocking agent.
Cell culture reagents were purchased from Thermo Fisher Scientific (Vienna, Austria) or Sigma-Aldrich (Vienna, Austria). […]
Internalization studies were performed as previously published. […] Non-specific receptor binding was determined by incubating the cells with the radiotracers and 1000-fold excess of natural bombesin (250 pmol; 100 μL per well) as the receptor blocking agent. […] The receptor-bound radioactivity was obtained by incubating the cells twice for 5 min with an ice-cold acidic glycine solution (100 mM NaCl, 50 mM glycine, pH 2.8; 1 mL) on ice followed by removal of the supernatant. […] All fractions were measured in a γ-counter and calculated as percentage of the applied dose (n = 2–3 in triplicate).

physchem = type: physicochemical; settings: pH 7.4
Protocol: For logD analysis, the octanol/PBS partition coefficients of the ^99mTc-tricarbonyl labeled BBN conjugates were determined at pH 7.4 utilizing the “shake-flask method” [25, 26]. The logD value for the reference compound [^99mTc][Tc(CO)3(BBN-13)] was −0.54 ± 0.04 while for the glycated compound [^99mTc][Tc(CO)3(12)] it was −1.26 ± 0.16 (Table 2). As expected, these measurements confirmed the increased hydrophilicity of the glycated ^99mTc-labeled BBN conjugate due to the introduction of the sorbitol moiety.
The lipophilicities (LogD) of [^99mTc][Tc(CO)3(L)] (L = 12, 13) were determined by their partition coefficient between n-octanol and PBS (pH 7.4) utilizing the “shake-flask method” [25, 26]. PBS and n-octanol were shaken overnight to saturate each phase. After separation of the layers by gravity, equal volumes (500 µL) of each layer were taken and transferred into an Eppendorf tube and 5 µL (~45 kBq) of the radiolabeled peptide solution were added to the PBS/n-octanol mixture. […] Aliquots of 300 µL were removed from the octanol and PBS phases and the radioactivity was measured in the γ-counter (n = 3 in triplicates). The lipophilicity was calculated as the log value of the average ratio between the radioactivity in the organic fraction (octanol) and the PBS fraction from the samples.

[3] = Biodistribution in nude mice bearing PC-3 tumor xenografts; settings: female, athymic nude (Fox-1^nu), mouse, in vivo, iv, 10 pmol, total radioactivity
Protocol: Biodistribution studies were performed in nude mice bearing PC-3 tumor xenografts at 1 h post-injection (p.i.) of the radiotracers (n = 6; Table 3, Figure 4).
All animals were treated according to the European Union rules on animal care. Animal experiments were approved by the Austrian Ministry of Sciences (BMBWF-66.009/0122-V/3b/2019). Approximately 5 × 10^6 PC-3 cells in 100 µL serum-free medium were subcutaneously injected into flanks of 8-week-old, female, athymic mice (Fox-1^nu, Charles River Laboratories). Xenografts were allowed to grow for 16 days (approx. size: 250 mm^3) and mice were intravenously injected via the tail vein with 0.1 µM radiolabeled peptide (10 pmol, ~42 kBq, 100 µL physiological saline) alone (baseline experiments) or co-injected with 2000-fold excess BBN(1–14) (20 nmol; blocking experiments). One hour p.i. of the radiotracers, mice were sacrificed and organs, tumor and blood were removed. Radioactivity in organs and tissues was quantified using a γ-counter (2480 Wizard^2, PerkinElmer). Organs and tissues were wet-weighted and percentage of injected dose per gram was calculated (% ID/g). Statistical analysis (2-way ANOVA) was performed by GraphPad Prism.

T1 sequence (P30550 whole entry): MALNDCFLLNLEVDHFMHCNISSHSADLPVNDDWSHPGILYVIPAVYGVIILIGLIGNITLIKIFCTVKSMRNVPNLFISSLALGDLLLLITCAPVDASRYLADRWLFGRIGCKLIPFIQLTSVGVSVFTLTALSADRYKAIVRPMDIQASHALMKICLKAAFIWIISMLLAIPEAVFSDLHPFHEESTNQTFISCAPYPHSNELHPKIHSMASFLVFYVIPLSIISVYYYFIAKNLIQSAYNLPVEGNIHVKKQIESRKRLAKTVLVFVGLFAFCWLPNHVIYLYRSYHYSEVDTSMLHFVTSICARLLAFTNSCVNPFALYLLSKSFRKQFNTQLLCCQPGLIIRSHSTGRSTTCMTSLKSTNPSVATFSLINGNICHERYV

**Q.** Which results are given for `CCCC[C@H](NC(=O)[C@H](CC(C)C)NC(=O)[C@H](Cc1c[nH]cn1)NC(=O)CNC(=O)[C@@H](NC(=O)[C@H](C)NC(=O)[C@H](Cc1c[nH]c2ccccc12)NC(=O)[C@H](CCC(N)=O)NC(=O)CCNC(=O)CCNC(=O)CCNC(=O)Cn1cc(CN[C@@H](CCCCNC(=O)CCCOC[C@H](O)[C@@H](O)[C@H](O)[C@H](O)CO)C(=O)O)nn1)C(C)C)C(N)=O` [[^99mTc][Tc(CO)3(12)], metal not drawn]?
**A.** Kd ([1]; 1–100 nM radiopeptide): 21.3 ± 4.6 nM; Bmax ([1]; maximum receptor occupancy): 0.91 ± 0.06 nM; cellular binding and uptake in the presence of blocking agent ([2]; 1000-fold excess of natural bombesin): < 0.5 % AD/10^6 cells; membrane bound fraction ([2]; acidic glycine wash fraction, n = 2–3 in triplicate): less than 5 % AD/10^6 cells; logD (physchem): -1.26 ± 0.16; tissue uptake at 1 h ([3]; 1 h p.i., i.v. 10 pmol, PC-3 xenograft, GRPR-positive, mean ± SD, n = 5–6, read-out: Tumor uptake): 2.72 ± 0.88 %ID/g; tissue uptake at 1 h ([3]; 1 h p.i., i.v. 10 pmol, mean ± SD, n = 5–6, read-out: Blood uptake): 1.22 ± 0.4 %ID/g; tissue uptake at 1 h ([3]; 1 h p.i., i.v. 10 pmol, mean ± SD, n = 5–6, read-out: Bone uptake): 0.44 ± 0.28 %ID/g; tissue uptake at 1 h ([3]; 1 h p.i., i.v. 10 pmol, mean ± SD, n = 5–6, read-out: Brain uptake): 0.09 ± 0.07 %ID/g; tissue uptake at 1 h ([3]; 1 h p.i., i.v. 10 pmol, mean ± SD, n = 5–6, read-out: Heart uptake): 0.5 ± 0.23 %ID/g; tissue uptake at 1 h ([3]; 1 h p.i., i.v. 10 pmol, mean ± SD, n = 5–6, read-out: Kidney uptake): 4.32 ± 0.97 %ID/g; tissue uptake at 1 h ([3]; 1 h p.i., i.v. 10 pmol, mean ± SD, n = 5–6, read-out: Liver uptake): 2.75 ± 0.74 %ID/g; tissue uptake at 1 h ([3]; 1 h p.i., i.v. 10 pmol, mean ± SD, n = 5–6, read-out: Lung uptake): 1.38 ± 0.83 %ID/g; tissue uptake at 1 h ([3]; 1 h p.i., i.v. 10 pmol, mean ± SD, n = 5–6, read-out: Muscle uptake): 0.35 ± 0.24 %ID/g; tissue uptake at 1 h ([3]; 1 h p.i., i.v. 10 pmol, mean ± SD, n = 5–6, read-out: Spleen uptake): 1.16 ± 0.17 %ID/g; tissue uptake at 1 h ([3]; Adrenal uptake): 5.34 ± 1.85 %ID/g; tissue uptake at 1 h ([3]; Colon uptake): 5.85 ± 1.29 %ID/g; tissue uptake at 1 h ([3]; Intestine uptake): 3.71 ± 1.48 %ID/g; tissue uptake at 1 h ([3]; Pancreas uptake): 17.1 ± 3.25 %ID/g; tissue uptake at 1 h ([3]; Stomach uptake): 3.03 ± 0.88 %ID/g; increase of hydrophilicity (logD) vs non-glycated reference: 0.7 log units
